Measurements: publication PMC8872419

Biological target: mutated SMN1 protein with T274YfsX32, myc-tagged (exogenous) (human) (UniProt Q16637)
Assay: co-IP; lysate (1 mg) of HeLa cells 24 h after transfection, RIPA buffer without SDS; anti-myc-tag antibody on Dynabeads Protein A; washed three times; blots with anti-myc-tag and anti-SMN antibodies; band ratio End-SMN/Exo-SMN, in triplicate

Substance: endogenous FL-SMN1 and/or FL-SMN2 protein (endogenous SMN protein) (from UniProt Q16637 1-294) (natural protein)
- ratio of End-SMN to Exo-SMN: 0.02
- ratio of End-SMN/Exo-SMN, percent of wild type: 4%
